Results reported in paper PMC8585765, “An OsKala3, R2R3 MYB TF, Is a Common Key Player for Black Rice Pericarp as Main Partner of an OsKala4, bHLH TF” (Frontiers in Plant Science, 2021).

Target: T1, OsKala4 (rice (Oryza sativa), UniProt Q948Y2 1-451)
T1 sequence (looked up): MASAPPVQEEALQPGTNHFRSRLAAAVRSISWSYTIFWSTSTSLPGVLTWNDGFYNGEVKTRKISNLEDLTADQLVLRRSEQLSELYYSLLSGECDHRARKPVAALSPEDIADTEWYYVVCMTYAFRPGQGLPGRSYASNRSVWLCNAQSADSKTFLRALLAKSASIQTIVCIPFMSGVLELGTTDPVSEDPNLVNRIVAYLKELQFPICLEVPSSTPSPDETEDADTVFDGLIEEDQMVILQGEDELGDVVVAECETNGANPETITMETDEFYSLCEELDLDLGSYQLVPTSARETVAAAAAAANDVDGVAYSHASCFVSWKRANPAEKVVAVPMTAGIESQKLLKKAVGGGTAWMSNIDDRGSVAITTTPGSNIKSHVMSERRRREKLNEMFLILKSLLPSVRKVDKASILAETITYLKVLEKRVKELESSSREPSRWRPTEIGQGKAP
Assay: cell-based or functional assay

- dual-luciferase reporter assay in transiently transfected rice protoplasts; proOsCHI:LUC reporter; co-transfection of OsKala3 and OsKala4 compared to OsKala3 alone: 4 fold
B1: OsKala3 (natural protein, rice (Oryza sativa), UniProt O23891 1-321, looked up)
chain: MGRKPCCSKEGLNRGAWTAMEDDILVSYIAKHGEGKWGALPKRAGLKRCGKSCRLRWLNYLRPGIKRGNISGDEEELILRLHTLLGNRWSLIAGRLPGRTDNEIKNYWNSTLSKRVAMQRTAAATSMPAAATTSSNADAAGAAARRRRSPEPRTVVVSPIRTKALRCNNNSSSGIVVVQQAGACSHGGRPPESGAPGDAAADKVATPQAVQQQQQQELAGAEDDDDLPVPAVCIDLDLDDIELGGLDGFLISPWRGGGHDDGNAAAGAVPNLPMPIGYKLGGAGGGGEAGAVDLEALLGQLEAEEDDDGDHHHHHHHHHHQ
